Data: patent US20090191187A1 (published 2009)
Positions count from the first letter of the chain named. Values joined by “and” are separate entries in the source; they are usually repeats but may differ in a detail not shown here. Equal entries are not always repeated. Values belong to the binder of their own block, whether it stands above or below them.

How the values were obtained:
[1] = target: T1, human interleukin-1 receptor on cells (MRC-5 human embryonic lung fibroblasts; human blood cells) (human, UniProt P14778 18-569); assay: cell-based or functional assay
T1 sequence (looked up): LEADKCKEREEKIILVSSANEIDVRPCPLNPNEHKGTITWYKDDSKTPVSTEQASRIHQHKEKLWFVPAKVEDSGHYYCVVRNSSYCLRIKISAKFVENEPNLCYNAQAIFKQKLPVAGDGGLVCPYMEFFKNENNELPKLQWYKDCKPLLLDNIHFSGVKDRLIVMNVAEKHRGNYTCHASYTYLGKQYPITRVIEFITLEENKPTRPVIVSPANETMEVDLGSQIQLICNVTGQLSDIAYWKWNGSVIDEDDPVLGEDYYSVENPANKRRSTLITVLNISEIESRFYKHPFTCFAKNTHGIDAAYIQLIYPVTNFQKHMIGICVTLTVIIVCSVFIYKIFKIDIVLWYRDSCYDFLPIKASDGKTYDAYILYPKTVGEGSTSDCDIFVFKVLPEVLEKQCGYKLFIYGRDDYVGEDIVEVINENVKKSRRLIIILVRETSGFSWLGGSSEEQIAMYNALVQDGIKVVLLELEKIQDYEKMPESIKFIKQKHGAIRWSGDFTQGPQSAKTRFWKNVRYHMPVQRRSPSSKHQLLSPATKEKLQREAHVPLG

[2] = target: T1, human interleukin-1 receptor on cells …; assay: cell-based or functional assay; remark: listed apart in the source
[3] = target: T2, recombinant soluble human type 1 IL-1 receptor (extracellular domain, glycosylated) (human, UniProt P14778 21-333, N-glycosylated (from SF9 insect cells); biotinylated in the ELISA of Examples 2 and 4c); assay: ELISA on biotinylated human IL-1R on streptavidin plates
T2 construct: also called hIL-1R; rshIL-1R
T2 sequence: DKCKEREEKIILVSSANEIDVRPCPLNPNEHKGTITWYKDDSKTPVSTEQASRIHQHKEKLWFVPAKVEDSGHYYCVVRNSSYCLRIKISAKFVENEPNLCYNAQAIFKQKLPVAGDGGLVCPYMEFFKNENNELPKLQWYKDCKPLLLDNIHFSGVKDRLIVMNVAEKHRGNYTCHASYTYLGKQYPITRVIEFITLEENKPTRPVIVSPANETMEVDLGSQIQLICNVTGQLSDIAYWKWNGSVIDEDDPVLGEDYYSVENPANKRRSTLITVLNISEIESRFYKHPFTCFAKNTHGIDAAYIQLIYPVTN
Protocol: The relative immunactivity of the antibodies as compared to 2D8 antibody was determined by ELISA. A soluble biotinylated human IL-1R was coated at room temperature for one hour to 96-well-plates (precoated with streptavidin). After blocking with BSA the antibody was diluted and added to the wells and incubated at room temperature for two hours. The plates were washed three times and incubated with horse-radish-peroxidase (POD)-conjugated rabbit-anti-rat-IgG at room temperature for one hour. After further washing the amount of bound antibody was determined by addition of TM-Blue® ([…]) and measurement of the absorbance at 370 nm.

B3: antibody 2D8 (rat monoclonal antibody against human interleukin-1 receptor, from hybridoma cell line MAK<h-IL-1RI>2D8, DSM ACC 2601) (antibody, V domains shown)
VH: QLQLKESGPGLVQPSQTLSLTCTVSELSLTSNSITWIRQPPGRGLEWMGMIWSNGDTDYNSAFTSRLSISRDTSKSQVFLKMNSLQTEDSAMYFCARYNYYFDYWGQGVMVTVSS
VL: DIVLTQAPVLAVSLEQRATISCKASQNVDNRGVSYVHWYQQKPRQQPKLLIYKGSNLAFGVPARFSGSGSRTDFTLTIDPVETDDFATYYCQQSKGHPDTFGAGTKLEL
IC 50 for the inhibition of IL-8 secretion (h-IL1β stimulated MRC-5 cells) [1]: 7.2 pM and 1.08 ng/ml
Bioassay (IC50 in relation to 2D8), Mean [2]: 1 relative to 2D8

B4: DEI5/4 (antibody, V domains shown)
VH: QLQLQESGPGLVKPSQTLSLTCTVSGLSLTSNSITWIRQPPGKGPEWMGMIWSNGDTDYSTSLKSRLTISKDTSKSQVVLTMTNMDPVDTATYYCARYNYYFDYWGQGTLVTVSS
VL: DIVLTQSPATLSLSPGERATLSCKASQNVDNRGVSYVHWYQQKPGQAPKLLIYKGSNLAFGVPARFSGSGSGTDFTLTISSLQPEDFATYYCQQSKGHPDTFGAGTKLELK
Bioassay (IC50 in relation to 2D8), 1st experiment [2]: 3.1 relative to 2D8
Bioassay (IC50 in relation to 2D8), 2nd experiment [2]: 1.9 relative to 2D8
Bioassay (IC50 in relation to 2D8), Mean [2]: 2.5 relative to 2D8

B5: DEI4/7 (antibody, V domains shown)
VH: QLQLQESGPGLVKPSQTLSLTCTVSGLSLTSNSITWIRQPPGKGPEWMGMIWSNGDTDYNSAFTSRFTISRDNSKNTLYLQMNSLKTEDTAVYYCARYNYYFDYWGQGTLVTVSS
VL: B4 VL with Y91F
Bioassay (IC50 in relation to 2D8), 1st experiment [2]: 3.4 relative to 2D8
Bioassay (IC50 in relation to 2D8), 2nd experiment [2]: 3.5 relative to 2D8
Bioassay (IC50 in relation to 2D8), Mean [2]: 3.5 relative to 2D8

B6: HUM2/2 (antibody, V domains shown)
VH: QVQLQESGPGLVKPSETLSLTCTVSELSLTSNSITWIRQPPGKGLEWIGMIWSNGDTDYNSAFTSRVTISRDTSKNQFSLKLSSVTAADTAVYYCARYNYYFDYWGQGTLVTVSS
VL: B4 VL with D1E, K49R, G72R, Q83E, A104Q, L108V, L110I
notes: Humanized variant of 2D8
ELISA (absorbance at 370 nm in relation to 2D8), 1st experiment [3]: 1.3 relative to 2D8
ELISA (absorbance at 370 nm in relation to 2D8), 2nd experiment [3]: 1.6 relative to 2D8
ELISA (absorbance at 370 nm in relation to 2D8), mean [3]: 1.4 relative to 2D8
Bioassay (IC50 in relation to 2D8), 1st experiment [2]: 0.9 relative to 2D8
Bioassay (IC50 in relation to 2D8), 2nd experiment [2]: 1 relative to 2D8
Bioassay (IC50 in relation to 2D8), Mean [2]: 1 relative to 2D8

B10: HUM2/3 (antibody, V domains shown)
VH: B6 VH
VL: B4 VL with D1E, L21I, A47Q, G72R, Q83E, A104Q, L108V, L110I
notes: also called combination of HUR HuVH v2 and HUR HuVK v3
ELISA (absorbance at 370 nm in relation to 2D8), 1st experiment [3]: 2.2 relative to 2D8
ELISA (absorbance at 370 nm in relation to 2D8), 2nd experiment [3]: 2.1 relative to 2D8
ELISA (absorbance at 370 nm in relation to 2D8), mean [3]: 2.2 relative to 2D8
Bioassay (IC50 in relation to 2D8), 1st experiment [2]: 0.8 relative to 2D8
Bioassay (IC50 in relation to 2D8), 2nd experiment [2]: 1.5 relative to 2D8
Bioassay (IC50 in relation to 2D8), Mean [2]: 1.2 relative to 2D8

B13: DEI5/9 (antibody, V domains shown)
VH: B4 VH
VL: B4 VL with A64S
Bioassay (IC50 in relation to 2D8), 1st experiment [2]: 1.6 relative to 2D8
Bioassay (IC50 in relation to 2D8), 2nd experiment [2]: 2.8 relative to 2D8
Bioassay (IC50 in relation to 2D8), Mean [2]: 2.2 relative to 2D8

B14: DEI2/4 (antibody, V domains shown)
VH: B4 VH with I37V, P40A, K43Q, P45L
VL: B4 VL
notes: also called combination of HURDIVHv2 and HURDIVKv4
ELISA (absorbance at 370 nm in relation to 2D8), 1st experiment [3]: 1.5 relative to 2D8
ELISA (absorbance at 370 nm in relation to 2D8), 2nd experiment [3]: 1.8 relative to 2D8
ELISA (absorbance at 370 nm in relation to 2D8), mean [3]: 1.7 relative to 2D8
Bioassay (IC50 in relation to 2D8), 1st experiment [2]: 2.5 relative to 2D8
Bioassay (IC50 in relation to 2D8), 2nd experiment [2]: 2 relative to 2D8
Bioassay (IC50 in relation to 2D8), Mean [2]: 2.3 relative to 2D8

B15: DEI5/7 (antibody, V domains shown)
VH: B4 VH
VL: B4 VL with Y91F
Bioassay (IC50 in relation to 2D8), 1st experiment [2]: 3.4 relative to 2D8
Bioassay (IC50 in relation to 2D8), 2nd experiment [2]: 1.2 relative to 2D8
Bioassay (IC50 in relation to 2D8), Mean [2]: 2.3 relative to 2D8

B16: DEI5/5 (antibody, V domains shown)
VH: B4 VH
VL: B4 VL with L21I
notes: also called combination of HURDIVHv5 and HURDIVKv5
ELISA (absorbance at 370 nm in relation to 2D8), 1st experiment [3]: 3.1 relative to 2D8
ELISA (absorbance at 370 nm in relation to 2D8), 2nd experiment [3]: 3.4 relative to 2D8
ELISA (absorbance at 370 nm in relation to 2D8), mean [3]: 3.3 relative to 2D8
Bioassay (IC50 in relation to 2D8), 1st experiment [2]: 5.2 relative to 2D8
Bioassay (IC50 in relation to 2D8), 2nd experiment [2]: 3.9 relative to 2D8
Bioassay (IC50 in relation to 2D8), Mean [2]: 4.6 relative to 2D8

Now from value to binder:

IC 50 for the inhibition of IL-8 secretion (h-IL1β stimulated MRC-5 cells) [1]: 4.7 pM and 0.71 ng/ml
B1: chimeric 2D8 (IgG1) (antibody)
heavy: not shown
light: DIVLTQAPVLAVSLEQRATISCKASQNVDNRGVSYVHWYQQKPRQQPKLLIYKGSNLAFGVPARFSGSGSRTDFTLTIDPVETDDFATYYCQQSKGHPDTFGAGTKLELKRTVAAPSVFIFPPSDEQLKSGTASVVCLLNNFYPREAKVQWKVDNALQSGNSQESVTEQDSKDSTYSLSSTLTLSKADYEKHKVYACEVTHQGLSSPVTKSFNRGEC

IC 50 for the inhibition of IL-8 secretion (h-IL1β stimulated MRC-5 cells) [1]: 5.1 pM and 0.77 ng/ml
B2: chimeric 2D8 (IgG4) (antibody)
heavy: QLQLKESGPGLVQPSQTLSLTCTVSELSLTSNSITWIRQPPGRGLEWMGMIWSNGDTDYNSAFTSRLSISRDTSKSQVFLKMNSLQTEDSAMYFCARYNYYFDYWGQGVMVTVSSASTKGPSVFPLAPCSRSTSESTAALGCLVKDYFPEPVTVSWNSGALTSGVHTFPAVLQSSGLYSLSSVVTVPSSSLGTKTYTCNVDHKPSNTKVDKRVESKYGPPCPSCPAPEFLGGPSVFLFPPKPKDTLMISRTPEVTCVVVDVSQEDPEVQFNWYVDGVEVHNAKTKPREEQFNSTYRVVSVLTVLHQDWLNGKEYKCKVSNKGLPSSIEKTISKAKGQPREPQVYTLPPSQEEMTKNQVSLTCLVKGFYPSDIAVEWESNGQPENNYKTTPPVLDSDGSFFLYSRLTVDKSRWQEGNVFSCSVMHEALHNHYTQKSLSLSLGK
light: B1 light

ELISA (absorbance at 370 nm in relation to 2D8), 1st experiment [3]: 1.5 relative to 2D8
ELISA (absorbance at 370 nm in relation to 2D8), 2nd experiment [3]: 2.6 relative to 2D8
ELISA (absorbance at 370 nm in relation to 2D8), mean [3]: 2.1 relative to 2D8
Bioassay (IC50 in relation to 2D8), 1st experiment [2]: 3.3 relative to 2D8
Bioassay (IC50 in relation to 2D8), 2nd experiment [2]: 1.4 relative to 2D8
Bioassay (IC50 in relation to 2D8), Mean [2]: 2.4 relative to 2D8
B7: DEI2/8 (antibody, V domains shown)
VH: B4 VH with I37V, P40A, K43Q, P45L
VL: B4 VL with A64S, Y91F
notes: also called combination of HURDIVHv2 and HURDIVKv8

ELISA (absorbance at 370 nm in relation to 2D8), 1st experiment [3]: 2.1 relative to 2D8
ELISA (absorbance at 370 nm in relation to 2D8), 2nd experiment [3]: 2.2 relative to 2D8
ELISA (absorbance at 370 nm in relation to 2D8), mean [3]: 2.2 relative to 2D8
Bioassay (IC50 in relation to 2D8), 1st experiment [2]: 3.2 relative to 2D8
Bioassay (IC50 in relation to 2D8), 2nd experiment [2]: 0.7 relative to 2D8
Bioassay (IC50 in relation to 2D8), Mean [2]: 2 relative to 2D8
B8: DEI1/8 (antibody, V domains shown)
VH: B5 VH with I37V, P40A, K43Q, P45L
VL: B4 VL with A64S, Y91F

Bioassay (IC50 in relation to 2D8), 1st experiment [2]: 5.2 relative to 2D8
Bioassay (IC50 in relation to 2D8), 2nd experiment [2]: 4.1 relative to 2D8
Bioassay (IC50 in relation to 2D8), Mean [2]: 4.7 relative to 2D8
B9: DEI4/9 (antibody, V domains shown)
VH: B5 VH
VL: B4 VL with A64S

ELISA (absorbance at 370 nm in relation to 2D8), 1st experiment [3]: 3 relative to 2D8
ELISA (absorbance at 370 nm in relation to 2D8), 2nd experiment [3]: 2.2 relative to 2D8
ELISA (absorbance at 370 nm in relation to 2D8), mean [3]: 2.6 relative to 2D8
Bioassay (IC50 in relation to 2D8), 1st experiment [2]: 1.5 relative to 2D8
Bioassay (IC50 in relation to 2D8), 2nd experiment [2]: 4.5 relative to 2D8
Bioassay (IC50 in relation to 2D8), Mean [2]: 3 relative to 2D8
B11: DEI4/5 (antibody, V domains shown)
VH: B5 VH
VL: B4 VL with L21I
notes: also called combination of HURDIVHv4 and HURDIVKv5

ELISA (absorbance at 370 nm in relation to 2D8), 1st experiment [3]: 1.4 relative to 2D8
ELISA (absorbance at 370 nm in relation to 2D8), 2nd experiment [3]: 1.8 relative to 2D8
ELISA (absorbance at 370 nm in relation to 2D8), mean [3]: 1.6 relative to 2D8
Bioassay (IC50 in relation to 2D8), 1st experiment [2]: 2.7 relative to 2D8
Bioassay (IC50 in relation to 2D8), 2nd experiment [2]: 2.8 relative to 2D8
Bioassay (IC50 in relation to 2D8), Mean [2]: 2.8 relative to 2D8
B12: DEI2/9 (antibody, V domains shown)
VH: B4 VH with I37V, P40A, K43Q, P45L
VL: B4 VL with A64S
notes: also called combination of HURDIVHv2 and HURDIVKv9
